B1: CPEB3 Ribozyme (parent)
chain: GGGGGCCACAGCAGAAGCGUUCACGUCGCGGCCCCUGUCAGAUUCUGGUGAAUCUGCGAAUUCUGCUGU

This is an account of results in the RNAGym collection of RNA variant scans (doi:10.7554/elife.80360).

The variants in this series derive from B1. In words: self-cleavage, relative activity (ratio to wild type); higher = more cleavage; co-transcriptional.
On to A52C G58U, for which the self-cleavage was determined as 0.977.
For A51G G68A the value was 1.01; for A51G G68C, 0.911; for A51G G68U, 1.03.
Consider G50A G65A, for which the self-cleavage worked out at 0.901.
For G50A G65U the value was 0.882; for U49G A51C, 0.939; for G50A U69C, 1.07.
For G50A U69G the value was 1.06; for U49C U61G, 0.829.
For G50U G58U the value was 1.03; for G50U G58A, 0.948; for A51U U53G, 0.825.
Take A51U U53C: the self-cleavage amounted to 0.863.
For A51U U67G, the self-cleavage stood at 1.
Turning to A51U U67C, the self-cleavage worked out at 1.01.
For A51U U67A the value was 0.976; for A51C U55A, 0.643; for G50C U64C, 0.823.
In the case of G50C U64G, the self-cleavage was found to be 0.844.
As for A52C U55A, the self-cleavage was 0.631.
Take A52C U55C: the self-cleavage turned out to be 0.686.
For A52C U55G the value was 0.56; for A52G, 0.995.
For A52C the value was 0.993; for U49G G58A, 0.912; for G50C U61G, 0.526.
For G50C U61A the value was 0.823; for G50C U61C, 0.762; for A51C A52G, 0.914.
Regarding A51C A52C, the self-cleavage came to 0.949.
With A51C C57U, the self-cleavage was 0.338.
As for A51C C57A, the figure is 0.294; as for A51G A52C, 0.94; as for A51G A52U, 0.902.
For A51G U62G the value was 0.89; for A51G U62A, 0.98; for A51G U62C, 0.884.
As for G50A A51U, the figure is 0.987; as for G50A A51G, 0.978.
Take A51G U55G: the self-cleavage was 0.63.
As for A51G U55C, the self-cleavage was 0.839.
For A51U G65U the value was 0.765.
For A51U G65A the value was 0.889; for A51C U69A, 1.05; for A51C U69G, 1.01.
As for A51C U69C, the figure is 1.08; as for A51C C66G, 0.777; as for A51C C66A, 0.628.
A51C C66U: the self-cleavage amounted to 0.937.
For A52C C57G the value was 0.26; for G50U A60U, 0.515.
Take G50C C54U: the self-cleavage was 0.921.
For G50C C54G the value was 0.654; for U49C G65U, 0.79; for U49C G65C, 0.634.
As for A51C C63A, the figure is 0.748.
As for A51C C63U, the figure is 0.942; as for G50U U61A, 0.97; as for G50U U61C, 0.841.
On to G50U U61G, for which the self-cleavage was determined as 0.857.
With U49G C66G, the self-cleavage came out at 0.908.
As to U49G C66U, the self-cleavage turned out to be 0.98.
Regarding G50C G56U, the self-cleavage was 0.842.
For G50C G56A the value was 0.831.
As for G50A C63G, the figure is 0.859; as for G50A C63A, 0.856; as for A51U A52G, 0.982.
On to A51U A52C, for which the self-cleavage was 0.969.
Turning to A51G U61G, the self-cleavage turned out to be 0.85.
For A51G U61A the value was 0.833; for A51U A60C, 0.378; for A51U A60U, 0.438.
For A51U A60G the value was 0.891; for A51U G68A, 0.999; for A51U G68C, 1.
As for A51U G68U, the figure is 1.01.
As for G50U G68C, the self-cleavage came to 1.03.
As for G50U G68A, the figure is 1.01.
For G50U U62A the value was 0.989.
G50U U62G: the self-cleavage was 0.977.
As for G50U U67C, the figure is 1.01; as for A51C G58U, 1.03.
For A51C G58C the value was 0.957; for A51C G58A, 0.92.
As to G50A U64A, the self-cleavage worked out at 0.937.
As for A51G U53G, the figure is 0.839.
With A51G U53C, the self-cleavage is 0.899.
As for A51G U53A, the self-cleavage worked out at 0.981.
For A51U A59U the value was 0.762; for A51U A59C, 0.645; for A51C U64A, 0.866.
For A51C U64C the value was 0.787.
As for A52C A59C, the figure is 0.527.
As for A52C A59G, the self-cleavage was 0.985.
For U49G U62G the value was 0.898.
Take U49G U62A: the self-cleavage is 0.937.
As for U49G U62C, the figure is 0.923.
For G50C U62G, the self-cleavage was 0.755.
For G50C U62C the value was 0.763.
As for G50C U62A, the figure is 0.968; as for A52G C57G, 0.23.
A52G C57U: the self-cleavage was 0.407.
As for G50U C63U, the figure is 0.974; as for G50U C63A, 0.874; as for A52C U53A, 0.936.
For A52C U53C the value was 0.806.
As for G50A C57G, the figure is 0.301; as for G50C U69A, 0.978.
Regarding G50C U69G, the self-cleavage came out at 1.06.
Regarding G50U A51G, the self-cleavage worked out at 1.01.
Regarding G50U A51U, the self-cleavage came to 0.995.
For U49C U69G the value was 1.05; for U49C U69A, 1.04; for U49C U69C, 1.04.
On to G50U U53A, for which the self-cleavage came out at 0.999.
As for G50C G68U, the figure is 0.973; as for G50C G68C, 0.964; as for U49C U62C, 0.827.
As for U49C U62G, the figure is 0.932; as for U49C U53G, 0.859; as for U49C U53A, 0.962.
As for U49C U53C, the figure is 0.948; as for A52C C66G, 0.782; as for A52C C66U, 0.912.
Consider A52C C66A, for which the self-cleavage is 0.68.
As for A51G C63U, the figure is 0.96.
On to A51G C63A, for which the self-cleavage was 0.884.
Take A51G C63G: the self-cleavage came to 0.772.
As for G50A C66U, the figure is 1.01; as for A51G U69G, 1.03; as for A51G U69A, 0.995.
Take G50A U55A: the self-cleavage is 0.912.
For G50A U67A the value was 0.989.
As for A51G U64A, the figure is 0.991.
Take A51G U64C: the self-cleavage was 0.949.
As for A51G U64G, the figure is 0.917.
As for A51C U67G, the figure is 0.993.
As for A51C U67A, the figure is 0.961.
For the variant U49C U67A, the self-cleavage was 0.946.
For U49C U67G the value was 0.969.
For U49C U67C the value was 0.986; for A51U C63G, 0.815.
A51U C63U: the self-cleavage is 0.996.
For A52C A60U the value was 0.476; for A51C, 0.989; for A51G, 0.994.
Consider A51U, for which the self-cleavage is 0.994.
As for G50C C57A, the figure is 0.366.
As for G50C C57U, the figure is 0.384; as for A51C G56U, 0.8.
As for A51C G56A, the figure is 0.856.
With U49G G68U, the self-cleavage turned out to be 1.01.
For G50A A59G, the self-cleavage was determined as 1.02.
For G50A A59U the value was 0.834; for A52C G56U, 0.741.
As for A52C G56C, the figure is 0.536; as for G50A A52U, 0.993.
For G50A A52C the value was 1.04; for G50C U55C, 0.486; for G50C U55G, 0.685.
In the case of G50C U55A, the self-cleavage amounted to 0.794.
Turning to A51U C66U, the self-cleavage was 0.981.
As for A51U C66G, the figure is 0.752.
For A51U C66A the value was 0.706.
As for A51C A59U, the figure is 0.742.
As to A51C A59C, the self-cleavage is 0.658.
